Measured values as given in patent US6635429B1, “Heterodimeric nuclear receptors proteins, genes encoding same, and usage thereof” (Institut National de la Sante et de la Recherche Medicale, dated 1993).

Molecular target: the molecule itself
Experiment: cell-based or functional assay

B1: human RARα1 (a.a. 1 to 462) (receptor)
chain: MASNSSSCPTPGGGHLNGYPVPPYAFFFPPMLGGLSPPGALTTLQHQLPVSGYSTPSPATIETQSSSSEEIVPSPPSPPPLPRIYKPCFVCQDKSSGYHYGVSACEGCKGFFRRSIQKNMVYTCHRDKNCIINKVTRNRCQYCRLQKCFEVGMSKESVRNDRNKKKKEVPKPECSESYTLTPEVGELIEKVRKAHQETFPALCQLGKYTTNNSSEQRVSLDIDLWDKFSELSTKCIIKTVEFAKQLPGFTTLTIADQITLLKAACLDILILRICTRYTPEQDTMTFSDGLTLNRTQMHNAGFGPLTDLVFAFANQLLPLEMDDAETGLLSAICLICGDRQDLEQPDRVDMLQEPLLEALKVYVRKRRPSRPHMFPKMLMKITDLRSISAKGAERVITLKMEIPGSMPPLIQEMLENSEGLDTLSGQPGGGGRDGGGLAPPPGSCSPSLSPSSNRSSPATHSP
OMPdecase activity of the DR5-URA3 reporter in yeast: ~5 fold
